The record followed here is US12410253B2, “Compositions comprising anti-NRP2 antibodies” (aTyr Pharma, Inc., priority 2019, dated 2025).

One data set deals with NRP2/PLXNA1. The data set is described as follows: Split-luciferase receptor dimerization assay, NRP2/PLXNA1 with SEMA3F. It counts as cell-based, human. The settings on record: antibody 100 nM; ligand induced dimerization. The procedure:
To further extend the assessment of the biological activity of the anti-NRP2 antibodies, their activity was assessed in a receptor dimerization assay. In brief, vectors encoding a split luciferase pBiT1.1 and pBiT2.1 were obtained from Promega corporation (Madison, Wisconsin). The complete extracellular domain and transmembrane helices of NRP2a (version 2), NRP2b (version 5) (See table N1), FLT4 (VEGFR3), KDR (VEGFR2), and plexin A1 (PLXNA1) were cloned into the vectors and screened for optimal orientation, receptor density, and ligand induced dimerization, following established methods. Expi293 cells (Fisher) were transfected at 1 million cells/mL ˜20 hours prior to the assay with NRP2 and a co-receptor at equal mass amounts. Cells were counted, and 100,000 live cells were plated in a well of a white luminometer plate in Live Cell Imaging Solution (Fisher). Nano-Glo assay substrate (Promega) was added, and the plate was read on a Glomax 96 luminometer at room temperature to establish baseline luminescence. Antibodies were added to the well at 100 nM and the plate was again read to establish a new baseline and monitor the effects of the antibodies on spontaneous receptor dimerization. Depending on the receptor pair, typically 200 nM SEMA3F-p95 (aTyr Pharma), 2 nM VEGF-C(R&D Systems, Minnesota), or 2 nM VEGF165 (R&D Systems, Minnesota) were then added and the plate was again read to measure dimerization of receptors. Normalized responses for each individual well were calculated to the time point prior to addition of ligand, then normalized to no-antibody/no-ligand (baseline signal). Replicates were then processed to give average response and standard deviation. Results are summarized in Table E3 below, and shown graphically in FIGS. 3-10.

The target in a further data set is T1, Human NRP2 (aa23-855) (Homo sapiens, UniProt O60462).
T1 construct: Human NRP2 (aa23-855)
T1 sequence (O60462 23-855 isoform O60462-3): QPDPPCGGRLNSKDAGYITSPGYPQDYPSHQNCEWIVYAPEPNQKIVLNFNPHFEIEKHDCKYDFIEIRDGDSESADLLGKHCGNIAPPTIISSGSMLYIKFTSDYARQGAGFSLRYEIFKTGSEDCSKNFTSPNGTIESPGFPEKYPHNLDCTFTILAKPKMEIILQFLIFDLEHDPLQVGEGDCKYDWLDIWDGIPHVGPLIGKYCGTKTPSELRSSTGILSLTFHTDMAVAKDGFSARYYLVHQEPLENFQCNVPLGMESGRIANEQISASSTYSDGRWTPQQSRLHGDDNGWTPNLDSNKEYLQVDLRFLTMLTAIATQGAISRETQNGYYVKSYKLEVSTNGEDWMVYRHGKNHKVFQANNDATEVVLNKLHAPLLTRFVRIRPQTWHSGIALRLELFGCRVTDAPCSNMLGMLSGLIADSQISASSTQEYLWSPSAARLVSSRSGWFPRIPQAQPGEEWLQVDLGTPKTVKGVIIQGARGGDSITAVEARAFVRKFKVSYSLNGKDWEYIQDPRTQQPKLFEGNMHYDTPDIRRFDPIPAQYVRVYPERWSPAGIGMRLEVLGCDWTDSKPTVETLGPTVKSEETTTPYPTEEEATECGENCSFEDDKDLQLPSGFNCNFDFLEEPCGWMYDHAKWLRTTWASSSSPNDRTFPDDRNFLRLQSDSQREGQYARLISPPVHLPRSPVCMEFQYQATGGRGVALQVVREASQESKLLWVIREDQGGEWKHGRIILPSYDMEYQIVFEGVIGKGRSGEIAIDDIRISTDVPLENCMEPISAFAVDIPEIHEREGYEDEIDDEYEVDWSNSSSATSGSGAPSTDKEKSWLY
Nature of the data set: SPR binding affinity of anti-NRP2 antibodies to human NRP2 antigen. The settings on record: KD = kd/ka, Langmuir (1:1) model. On the technique in general: In SPR one partner is held on a chip, and binding of the other changes the refractive index at the surface.

B1: aNRP2-11v7: humanized, affinity matured anti-NRP2 antibody, target domain b2; VH SEQ ID NO: 51, VL SEQ ID NO: 52 (antibody, V domains shown)
VH: QVQLVQSGAEVKKPGASVKVSCKASGYTFTSFGISWVRQAPGQGLEWIGEIYPRSGNTYYNENFKGRATMTADKSTSTAYMELRSLRSDDTAVYYCARSSGYYGSTPFPYWGQGTLVTVSS
VL: DIQMTQSPSSLSASVGDRVTITCRASQDISNYLNWYQQKPGKAVKLLIYYTSRLHSGVPSRFSGSGSGTDYTFTISSLQPEDIATYYCQQGNTLPWTFGGGTKVEIK
modifications: Variable heavy chain region; Light chain variable region
On to B1, for which the “effect on NRP2-plexin heterodimerization (in words)” value in the data set with NRP2/PLXNA1 is recorded as “increased the ligand induced dimerization signal”. In addition, in the data set with Human NRP2 (aa23-855), the affinity, expressed as Kd, was 0.95 nM.

B2: aNRP2-10v10: humanized, affinity matured anti-NRP2 antibody, target domain b1, VEGF-C blocking; VH SEQ ID NO: 49, VL SEQ ID NO: 50 (antibody, V domains shown)
VH: EVQLVQSGAEVKKPGATVKISCKVSGFNIKDYYVHWVQQAPGKGLEWMGRIDVEDDETKYAPKFQGRVTITADTSTDTAYMELSSLRSEDTAVYYCATPIYGAREAWFAYWGQGTLVTVSS
VL: DIQMTQSPSSLSASVGDRVTITCTASSSVSSSYLHWYQQKPGKAPKLLIYRTSNLASGVPSRFSGSGSGTDFTLTISSLQPEDFATYYCHQYYRSPPTFGGGTKVEIK
modifications: Variable heavy chain region; Light chain variable region
As to B2, the “effect on NRP2-plexin heterodimerization (in words)” value in the data set with NRP2/PLXNA1 is reported as “without significantly inhibiting”. Further, in the data set with Human NRP2 (aa23-855), the Kd (as a rule, the equilibrium constant for the complex coming apart) is 0.029 nM.
